Test results: patent publication US20210101992A1 (KIRA BIOTECH, published 2021)

B1: hFab 1F7 (Fab, V domains shown)
VH: EVQLVQSGGAVVQPGRSLRLSCAASGFTFSTYGMHWVRQAPGKGLEWVAAVSYDGSNKYYADFVKGRFTISRDNPKNTLYLQMNSLRADDTAVYYCARRGGLDIWGQGTTVTVSS
VL: LTQPPPASGTPGQRVTISCSGSSSNIGSNTVNWYQQLPGTAPKLLIYGNDQRPSGVPDRFSASKSGTSASLAISGLQSEDEAHYYCAAWDGSLNGGVIFGGGTKVTLG
notes: Human Fab from a phage display library; The heavy chain carries a 6x His tag and a myc tag, and the light chain was detected as kappa; also called 1F7 hFab; 1F7 Fab
B2: hFab4.9 (Fab, V domains shown)
VH: EVQLVQSGGAVVQPGRSLRLSCAASGFTFSTYGMHWVRQAPGKGLEWVAAVSYDGSNKYYADFVKGRFTISRDNPKNTLYLQMNSLRADDTAVYYCARRGGLDIWGQGTTVTVSS
VL: MTQSPSSLSASVGHPVTITCRASQSLISYLNWYHQKPGKAPKLLIYAASILQSGVPSRFSGSGSGTDFTLTISSLQPENFASYYCQHTDSFPRTFGHGTKVEIKR
notes: Light chain shuffled variant of 1F7
B3: hFab4.12 (Fab, V domains shown)
VH: EVQLVQSGGAVVQPGRSLRLSCAASGFTFSTYGMHWVRQAPGKGLEWVAAVSYDGSNKYYADFVKGRFTISRDNPKNTLYLQMNSLRADDTAVYYCARRGGLDIWGQGTTVTVSS
VL: MTQAPVVSVALEQTVRITCQGDSLAIYYDFWYQHKPGQAPVLVIYGKNNRPSGIPHRFSGSSSNTDSLTITGAQAEDEADYYCNSRDSSGNHWVFGGGTNLTVLG
notes: as for B2
B4: hFab4.5 (Fab, V domains shown)
VH: EVQLVQSGGAVVQPGRSLRLSCAASGFTFSTYGMHWVRQAPGKGLEWVAAVSYDGSNKYYADFVKGRFTISRDNPKNTLYLQMNSLRADDTAVYYCARRGGLDIWGQGTTVTVSS
VL: LTQSPLSLPVTLGQPASISCKSSQSLVDSDGNTYLNWFQQRPGQSPRRLIYKVSNRDSGVPDRFSGSGSGTDFTLKISRVEAEDVGVYYCMQGTHWPRTFGQGTKVEIKR
notes: Light chain shuffled variant of 1F7, expressed as hFab in the E. coli periplasm
B5: hFab4.8 (Fab, V domains shown)
VH: EVQLVQSGGAVVQPGRSLRLSCAASGFTFSTYGMHWVRQAPGKGLEWVAAVSYDGSNKYYADFVKGRFTISRDNPKNTLYLQMNSLRADDTAVYYCARRGGLDIWGQGTTVTVSS
VL: MTQSPSSLSASVGDRVTITCQASQDISNYLNWYQQKPGKAPKLLIYDASNLETGVPSRFSGSGSGTDFTFTISSLQPDDFATYYCQQTYSWPRTFGQGTKLEIKR
notes: as for B4
B6: hFab4.2 (Fab, V domains shown)
VH: EVQLVQSGGAVVQPGRSLRLSCAASGFTFSTYGMHWVRQAPGKGLEWVAAVSYDGSNKYYADFVKGRFTISRDNPKNTLYLQMNSLRADDTAVYYCARRGGLDIWGQGTTVTVSS
VL: MTHTPLSLSVTPGQPASISCKSSQSLLHSDGKTYLYWYLQRPGQSPQPLIYEVSNRFSGVPDRFSGSGSGTDFTLKISRVEAEDVGVYYCMQSLQLWTFGQGTKVEIKR
notes: as for B2
B7: hFab4.10 (Fab, V domains shown)
VH: EVQLVQSGGAVVQPGRSLRLSCAASGFTFSTYGMHWVRQAPGKGLEWVAAVSYDGSNKYYADFVKGRFTISRDNPKNTLYLQMNSLRADDTAVYYCARRGGLDIWGQGTTVTVSS
VL: LTQPPSASGTPGQGVTISCRGSTSNIGNNVVNWYQHVPGSAPKLLIWSNIQRPSGIPDRFSGSKSGTSASLAISGLQSEDEAVYYCAVWDDGLAGWVFGGGTTVTVLS
notes: as for B2
B8: hFab4.1 (Fab, V domains shown)
VH: EVQLVQSGGAVVQPGRSLRLSCAASGFTFSTYGMHWVRQAPGKGLEWVAAVSYDGSNKYYADFVKGRFTISRDNPKNTLYLQMNSLRADDTAVYYCARRGGLDIWGQGTTVTVSS
VL: VTQPPSASGTPGQRVTISCSGSSSNIGTNPVNWYQQLPGTAPKLLIYTTDQRPSGVPDRFSGSKSGTSASLAISGLQSEDEADYYCAAWDDSLSGLYVFGTGTKVTVLG
notes: as for B2
B9: hFab4.7 (Fab, V domains shown)
VH: EVQLVQSGGAVVQPGRSLRLSCAASGFTFSTYGMHWVRQAPGKGLEWVAAVSYDGSNKYYADFVKGRFTISRDNPKNTLYLQMNSLRADDTAVYYCARRGGLDIWGQGTTVTVSS
VL: MTQSPLSLPVTLGQPASISCRSSQSLVHSDGNMYLNWFQQRPGQSPRRLIYKVSNRDSGVPDRFSGSGSGTDFTLKISRVEAEDVGVYYCMQATQPTWTFGQGTKLEIKR
notes: as for B2
B10: hFab4.3 (Fab, V domains shown)
VH: EVQLVQSGGAVVQPGRSLRLSCAASGFTFSTYGMHWVRQAPGKGLEWVAAVSYDGSNKYYADFVKGRFTISRDNPKNTLYLQMNSLRADDTAVYYCARRGGLDIWGQGTTVTVSS
VL: MTQSPLSLPVTLGQPASISCRSSQSLIHSDGNTYLDWFQQRPGQSPRRLIYKVSNRDSGVPDRFSGSGSGTDFTLRISRVEAEDIGVYYCMQATHWPRTFGQGTKVEIKR
notes: as for B2
B11: hFab4.18 (Fab, V domains shown)
VH: EVQLVQSGGAVVQPGRSLRLSCAASGFTFSTYGMHWVRQAPGKGLEWVAAVSYDGSNKYYADFVKGRFTISRDNPKNTLYLQMNSLRADDTAVYYCARRGGLDIWGQGTTVTVSS
VL: LTQSPLSLPVTLGQPASISCKSNQSLVHSDGNTYLNWFQQRPGQSPRRLIYKVSNRDSGVPDRFSGSGSGTDFTLKINRVEAEDVGVYYCMQGTQWPRTFGQGTKLDIKR
notes: as for B2
B12: hFab4.4 (Fab, V domains shown)
VH: EVQLVQSGGAVVQPGRSLRLSCAASGFTFSTYGMHWVRQAPGKGLEWVAAVSYDGSNKYYADFVKGRFTISRDNPKNTLYLQMNSLRADDTAVYYCARRGGLDIWGQGTTVTVSS
VL: MTQSPLSLPVTLGQPASISCRSSQSLVDSAGNTFLHWFHQRPGQSPRRLIYKVSNRDSGVPDRFSGSGSGTDFTLKISRVEAEDVGVYYCMQGTHWPRTFGQGTKVEIKR
notes: as for B4

What was measured:
BSA = BSA (Bos taurus, UniProt P02769); assay: ELISA on coated antigens, absorbance at 450 nm
[1] = molecular target: T1, CD83-His (ectodomain of human CD83 with 6x Histidine tag) (human, UniProt Q01151 20-144); assay: ELISA on coated CD83-His, detection with anti-kappa-HRP antibody, absorbance at 450 nm
T1 construct: extracellular domain; Expressed in mammalian cells; also called hCD83-His; recombinant CD83-His; not shown: 6x Histidine tag
T1 sequence (looked up): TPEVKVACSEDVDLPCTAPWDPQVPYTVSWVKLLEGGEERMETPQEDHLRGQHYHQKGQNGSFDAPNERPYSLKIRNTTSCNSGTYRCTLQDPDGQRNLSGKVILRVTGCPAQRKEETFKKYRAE
Procedure: The reactivity of purified hFab 1F7 to CD83 was analysed by ELISA.

[2] = molecular target: T1, CD83-His (ectodomain of human CD83 with …); assay: relative binding of light chain shuffled clones against 1F7; CD83 construct not given
[3] = molecular target: T2, CD83-Fc (human CD83 ectodomain, Fc tagged) (human, UniProt Q01151 20-144); assay: binding of periplasmic hFab's to CD83-Fc, normalised to binding to 9E10
T2 construct: extracellular domain; The construct is not described beyond 'hCD83 ectodomain (Fc and His tagged)'; also called hCD83-Fc; not shown: Fc tag
T2 sequence (looked up): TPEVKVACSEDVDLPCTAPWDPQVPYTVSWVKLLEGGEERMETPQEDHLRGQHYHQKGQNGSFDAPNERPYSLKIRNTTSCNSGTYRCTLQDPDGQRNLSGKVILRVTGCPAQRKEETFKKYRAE

Chain of BSA (P02769 25-607 limits assumed): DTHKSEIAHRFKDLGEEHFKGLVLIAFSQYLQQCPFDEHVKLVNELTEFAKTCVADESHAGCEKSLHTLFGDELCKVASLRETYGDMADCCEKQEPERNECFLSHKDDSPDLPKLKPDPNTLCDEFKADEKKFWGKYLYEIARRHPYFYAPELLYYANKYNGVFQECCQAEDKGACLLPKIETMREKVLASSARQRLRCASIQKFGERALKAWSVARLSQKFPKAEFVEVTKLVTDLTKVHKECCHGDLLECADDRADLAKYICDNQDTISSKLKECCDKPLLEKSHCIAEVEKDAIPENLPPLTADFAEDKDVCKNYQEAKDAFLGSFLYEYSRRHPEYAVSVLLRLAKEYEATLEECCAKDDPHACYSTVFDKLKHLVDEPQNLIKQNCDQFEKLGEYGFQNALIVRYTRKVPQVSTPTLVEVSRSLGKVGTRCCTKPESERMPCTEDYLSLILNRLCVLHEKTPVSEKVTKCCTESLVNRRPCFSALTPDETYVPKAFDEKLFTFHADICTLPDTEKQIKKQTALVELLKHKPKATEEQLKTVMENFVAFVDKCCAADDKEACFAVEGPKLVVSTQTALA

Row | Binder | binding result [2] | also measured
1 | B1 | – | binding result (BSA): no binding; EC50 (read off the curve) [1]: ~2 µg/mL
2 | B2 | binds | –
3 | B3 | binds | –
4 | B4 | binds | binding result [3]: binds
5 | B5 | binds | binding result [3]: binds
6 | B6 | binds | –
7 | B7 | binds | –
8 | B8 | binds | –
9 | B9 | binds | –
10 | B10 | binds | –
11 | B11 | binds | –
12 | B12 | binds | binding result [3]: binds
